According to paper PMC10786891, “Massively parallel profiling of RNA-targeting CRISPR-Cas13d”:
Numbering of substitutions follows the chain as printed. In names and notes the source's numbering stands.

T1: EsCas13d, nuclease-dead (Eubacterium siraeum, UniProt B0MS50, R295A;H300A;R849A;H854A)
T1 sequence: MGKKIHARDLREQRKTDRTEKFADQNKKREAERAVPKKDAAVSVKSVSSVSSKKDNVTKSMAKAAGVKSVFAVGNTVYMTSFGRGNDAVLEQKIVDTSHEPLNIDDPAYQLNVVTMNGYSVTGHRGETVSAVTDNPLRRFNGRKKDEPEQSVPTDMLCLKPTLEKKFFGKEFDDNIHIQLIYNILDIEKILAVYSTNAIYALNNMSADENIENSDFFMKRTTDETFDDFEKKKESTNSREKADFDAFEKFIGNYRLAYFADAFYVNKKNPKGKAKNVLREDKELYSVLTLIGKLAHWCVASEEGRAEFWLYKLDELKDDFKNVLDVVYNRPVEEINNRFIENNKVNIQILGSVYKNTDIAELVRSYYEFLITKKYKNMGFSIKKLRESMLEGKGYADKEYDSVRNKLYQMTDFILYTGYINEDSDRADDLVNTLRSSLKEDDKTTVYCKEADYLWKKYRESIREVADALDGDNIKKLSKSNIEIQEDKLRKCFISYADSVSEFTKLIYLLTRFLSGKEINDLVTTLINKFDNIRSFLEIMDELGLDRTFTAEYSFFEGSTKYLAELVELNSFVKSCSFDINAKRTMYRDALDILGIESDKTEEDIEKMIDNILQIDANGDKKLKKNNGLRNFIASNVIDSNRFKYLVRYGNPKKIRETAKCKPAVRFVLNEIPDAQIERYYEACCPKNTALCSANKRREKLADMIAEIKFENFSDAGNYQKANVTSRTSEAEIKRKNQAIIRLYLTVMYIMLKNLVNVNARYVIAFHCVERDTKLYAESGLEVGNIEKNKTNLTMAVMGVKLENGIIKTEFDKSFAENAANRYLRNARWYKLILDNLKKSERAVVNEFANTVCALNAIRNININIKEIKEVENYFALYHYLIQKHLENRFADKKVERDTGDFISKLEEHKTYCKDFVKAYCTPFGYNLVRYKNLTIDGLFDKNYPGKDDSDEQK

B1: target 1 C2U,U3A (mixed)
RNA 1: CACCCGUGCAAAAAUGCAGGGGUCUAAAACUGAGCGGAUAACCUCUCUAUGG
RNA 2: GGGAAUGGAUCCACAUCUACGAAUUCGUACCAUAGAGAGGUUAUCCGCAUACCGAGAUCGGAAGAGCACACGU
B2: target 1 insU 3' of 14,insA 3' of 4 (mixed)
RNA 1: B1 RNA 1
RNA 2: GGGAAUGGAUCCACAUCUACGAAUUCGUACCAUAGAGAUGGUUAUCCGCAUCACCGAGAUCGGAAGAGCACACGU
B3: target 1 insC 3' of 9,insU 3' of 1 (mixed)
RNA 1: B1 RNA 1
RNA 2: B2 RNA 2 with U39G, G41U, U43A, A44C, A50U, U51C, C52A, A53U
B4: target 1 G5U,U8A (mixed)
RNA 1: B1 RNA 1
RNA 2: B1 RNA 2 with U44A, G47U, A49U, U50C
B5: target 2 MT 5'PFS GAC 3'PFS UGU (mixed)
RNA 1: CACCCGUGCAAAAUUGCAGGGGUCUAAAACCUUCUCCAAAUUGUUUCAUCCU
RNA 2: GGGAAUGGAUCCACAUCUACGAAUUCGACAGGAUGAAACAAUUUGGAGAAGUGUAGAUCGGAAGAGCACACGU
B6: target 2 MT 5'PFS CUA 3'PFS ACC (mixed)
RNA 1: B5 RNA 1
RNA 2: B5 RNA 2 with G27C, A28U, C29A, U52A, G53C, U54C
B7: target 2 MT 5'PFS UGG 3'PFS UCA (mixed)
RNA 1: B5 RNA 1
RNA 2: B5 RNA 2 with G27U, A28G, C29G, G53C, U54A
B8: target 2 MT 5'PFS CUG 3'PFS UAU (mixed)
RNA 1: B5 RNA 1
RNA 2: B5 RNA 2 with G27C, A28U, C29G, G53A
B9: target 2 MT 5'PFS AUG 3'PFS UAA (mixed)
RNA 1: B5 RNA 1
RNA 2: B5 RNA 2 with G27A, A28U, C29G, G53A, U54A
B10: target 2 MT 5'PFS CGG 3'PFS UUU (mixed)
RNA 1: B5 RNA 1
RNA 2: B5 RNA 2 with G27C, A28G, C29G, G53U
B11: target 2 MT 5'PFS AUG 3'PFS UAC (mixed)
RNA 1: B5 RNA 1
RNA 2: B5 RNA 2 with G27A, A28U, C29G, G53A, U54C
B12: target 2 MT 5'PFS GGU 3'PFS UAU (mixed)
RNA 1: B5 RNA 1
RNA 2: B5 RNA 2 with A28G, C29U, G53A
B13: target 2 MT 5'PFS UAU 3'PFS AAU (mixed)
RNA 1: B5 RNA 1
RNA 2: B5 RNA 2 with G27U, C29U, U52A, G53A
B14: target 2 MT 5'PFS CAU 3'PFS AAG (mixed)
RNA 1: B5 RNA 1
RNA 2: B5 RNA 2 with G27C, C29U, U52A, G53A, U54G
B15: target 2 MT 5'PFS GCA 3'PFS AGA (mixed)
RNA 1: B5 RNA 1
RNA 2: B5 RNA 2 with A28C, C29A, U52A, U54A
B16: target 2 MT 5'PFS GCA 3'PFS CGA (mixed)
RNA 1: B5 RNA 1
RNA 2: B5 RNA 2 with A28C, C29A, U52C, U54A
B17: target 2 MT 5'PFS UGG 3'PFS UCU (mixed)
RNA 1: B5 RNA 1
RNA 2: B5 RNA 2 with G27U, A28G, C29G, G53C
B18: target 2 MT 5'PFS CUG 3'PFS UAA (mixed)
RNA 1: B5 RNA 1
RNA 2: B5 RNA 2 with G27C, A28U, C29G, G53A, U54A
B19: target 2 MT 5'PFS GGA 3'PFS UUA (mixed)
RNA 1: B5 RNA 1
RNA 2: B5 RNA 2 with A28G, C29A, G53U, U54A
B20: target 2 MT 5'PFS UAU 3'PFS AAC (mixed)
RNA 1: B5 RNA 1
RNA 2: B5 RNA 2 with G27U, C29U, U52A, G53A, U54C
B21: target 2 MT 5'PFS UAU 3'PFS AAG (mixed)
RNA 1: B5 RNA 1
RNA 2: B5 RNA 2 with G27U, C29U, U52A, G53A, U54G
B22: target 2 MT 5'PFS CAU 3'PFS CAU (mixed)
RNA 1: B5 RNA 1
RNA 2: B5 RNA 2 with G27C, C29U, U52C, G53A
B23: target 2 MT 5'PFS GGU 3'PFS UAA (mixed)
RNA 1: B5 RNA 1
RNA 2: B5 RNA 2 with A28G, C29U, G53A, U54A
B24: target 2 MT 5'PFS AUU 3'PFS AUG (mixed)
RNA 1: B5 RNA 1
RNA 2: B5 RNA 2 with G27A, A28U, C29U, U52A, G53U, U54G
B25: target 2 MT 5'PFS UGA 3'PFS CUU (mixed)
RNA 1: B5 RNA 1
RNA 2: B5 RNA 2 with G27U, A28G, C29A, U52C, G53U
B26: target 2 MT 5'PFS UUC 3'PFS CUC (mixed)
RNA 1: B5 RNA 1
RNA 2: B5 RNA 2 with G27U, A28U, U52C, G53U, U54C
B27: target 2 MT 5'PFS AGG 3'PFS CUU (mixed)
RNA 1: B5 RNA 1
RNA 2: B5 RNA 2 with G27A, A28G, C29G, U52C, G53U
B28: target 2 MT 5'PFS AGG 3'PFS CUG (mixed)
RNA 1: B5 RNA 1
RNA 2: B5 RNA 2 with G27A, A28G, C29G, U52C, G53U, U54G
B29: target 2 MT 5'PFS CGA 3'PFS CAC (mixed)
RNA 1: B5 RNA 1
RNA 2: B5 RNA 2 with G27C, A28G, C29A, U52C, G53A, U54C
B30: target 2 MT 5'PFS AGG 3'PFS CUC (mixed)
RNA 1: B5 RNA 1
RNA 2: B5 RNA 2 with G27A, A28G, C29G, U52C, G53U, U54C
B31: target 2 MT 5'PFS CGA 3'PFS CAA (mixed)
RNA 1: B5 RNA 1
RNA 2: B5 RNA 2 with G27C, A28G, C29A, U52C, G53A, U54A
B32: target 2 MT 5'PFS GCA 3'PFS AGC (mixed)
RNA 1: B5 RNA 1
RNA 2: B5 RNA 2 with A28C, C29A, U52A, U54C
B33: target 2 MT 5'PFS AGG 3'PFS AGG (mixed)
RNA 1: B5 RNA 1
RNA 2: B5 RNA 2 with G27A, A28G, C29G, U52A, U54G
B34: target 2 MT 5'PFS UCU 3'PFS AUA (mixed)
RNA 1: B5 RNA 1
RNA 2: B5 RNA 2 with G27U, A28C, C29U, U52A, G53U, U54A
B35: target 2 MT 5'PFS GCA 3'PFS CGC (mixed)
RNA 1: B5 RNA 1
RNA 2: B5 RNA 2 with A28C, C29A, U52C, U54C
B36: target 2 MT 5'PFS UAU 3'PFS AAA (mixed)
RNA 1: B5 RNA 1
RNA 2: B5 RNA 2 with G27U, C29U, U52A, G53A, U54A
B37: target 2 MT 5'PFS AUU 3'PFS AAC (mixed)
RNA 1: B5 RNA 1
RNA 2: B5 RNA 2 with G27A, A28U, C29U, U52A, G53A, U54C
B38: target 2 MT 5'PFS AUG 3'PFS UAU (mixed)
RNA 1: B5 RNA 1
RNA 2: B5 RNA 2 with G27A, A28U, C29G, G53A

target: T1, EsCas13d, nuclease-dead; assay: crRNA (strand 1, pre-loaded); Mg2+; 40 mM Tris-HCl pH 7.5, 150 mM NaCl, 6 mM MgCl2, 1 mM DTT, 0.1% Tween-20, 0.2 mg/ml BSA; 25 C; 10 min per concentration, then washed; settings: tags: His6-TwinStrep-SUMO cleaved; N-terminal SNAP kept (SNAP-Surface 488); label: 3' end held by stalled T7 RNA polymerase

Binder | Kd
B1 | 16.1 ± 1.9 nM
B2 | 26 ± 4 nM
B3 | 14.6 ± 0.7 nM
B4 | ~70 nM
B5 | 23 ± 4 nM
B6 | 1.8 ± 0.4 nM
B7 | 8.5 ± 0.9 nM
B8 | 5.3 ± 1.2 nM
B9 | 7.9 ± 1.3 nM
B10 | 15 ± 2.7 nM
B11 | 12.6 ± 2.3 nM
B12 | 17.6 ± 3.3 nM
B13 | 16.2 ± 1.5 nM
B14 | 4.9 ± 0.7 nM
B15 | 8.2 ± 1.7 nM
B16 | 8.4 ± 1.1 nM
B17 | 41 ± 11 nM
B18 | 2.77 ± 0.2 nM
B19 | 18.1 ± 3.5 nM

Binder | Kd
B20 | 24 ± 2.8 nM
B21 | 20.9 ± 2.2 nM
B22 | 4.9 ± 0.9 nM
B23 | 9.8 ± 1.1 nM
B24 | 7.5 ± 0.8 nM
B25 | 14.1 ± 3 nM
B26 | ~32 nM
B27 | 7.3 ± 0.9 nM
B28 | 7.4 ± 0.9 nM
B29 | 9 ± 4 nM
B30 | 9.4 ± 1.7 nM
B31 | 6.5 ± 2 nM
B32 | 7.5 ± 1.6 nM
B33 | 5.2 ± 0.6 nM
B34 | 9.3 ± 1.1 nM
B35 | 13.1 ± 1.9 nM
B36 | 18 ± 3.5 nM
B37 | 7.3 ± 0.9 nM
B38 | 15 ± 4 nM
